Assay [1] concerns the target human GLP-1 receptor (human) (UniProt P43220).
Assay [2] shares this target. The assay can be described thus: cell-based or functional assay.
Assay [3] has as its target T1, human GLP-1 receptor (human, UniProt P43220 24-463). The assay can be described thus: cell-based or functional assay.
Assay [4] addresses T1, human GLP-1 receptor. The assay can be described thus: cell-based or functional assay. This is another data set of the same source.
The target of assay [5] is T1, human GLP-1 receptor.

One may read the IC50 as the concentration that inhibits the measured activity by half. A low value points to inhibition by little substance.

Square brackets hold non-standard residues; d marks the D form. Ends that are not written are not given here. Asp(3,3-Me2) = CC(C)(C(=O)O)[C@H](N)C(=O)O

human GLP-1 receptor (human), sequence (P43220 24-463): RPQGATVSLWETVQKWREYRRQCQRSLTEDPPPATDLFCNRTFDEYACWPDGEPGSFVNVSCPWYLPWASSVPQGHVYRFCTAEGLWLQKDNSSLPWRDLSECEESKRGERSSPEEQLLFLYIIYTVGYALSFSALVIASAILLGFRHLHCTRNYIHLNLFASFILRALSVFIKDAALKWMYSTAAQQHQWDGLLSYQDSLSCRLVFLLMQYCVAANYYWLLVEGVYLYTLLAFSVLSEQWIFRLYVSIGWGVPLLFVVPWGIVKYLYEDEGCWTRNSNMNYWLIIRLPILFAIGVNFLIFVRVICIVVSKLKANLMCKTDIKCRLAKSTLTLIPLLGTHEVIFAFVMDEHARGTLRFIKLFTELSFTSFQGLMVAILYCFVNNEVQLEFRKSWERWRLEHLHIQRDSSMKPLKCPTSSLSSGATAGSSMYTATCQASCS

The molecule “Exendin-4 (peptide; other documents disagree on this pair)” displayed an IC50 in assay [1] of 0.4 nM. Consider Exendin-4 (peptide), for which the EC50 for receptor activation (cAMP) in assay [2] lay in the range of 0.1 to 0.5 nM. With HA[Asp(3,3-Me2)]GTFTSDVSSYLEGQAAKEFIAWLVKGRPSSGAPPPS (ends and bridges not checked) [P1732], the “EC50 (nM), cAMP production in COS-7 cells expressing the human GLP-1 receptor” value in assay [3] is 0.64 nM. In addition, in assay [4], the “EC50 for receptor activation (cAMP)” value was in the range of 0.4 to 1.1 nM. In assay [5], this molecule registered an IC50 of 2.5 nM.

The values above are taken from patent publication US20090306338A1 (TRUSTEES OF TUFTS COLLEGE, published 2009).
